From the DeepSol protein solubility set

Experiment: soluble on expression in E. coli; label from the status in PepcDB or PDB records

Row | Sequence | soluble on expression in E. coli
1 | MGSSHHHHHHMDRYEIKGVDVASYQGDIDWRELEKQNMKFAFIKATEGSAFVDKYFSKNWTNANKTSMRVGAYHFFSFDSKGETQAEQFIRNVPKYKQALPPVIDVEFYANKKDNPPKREDVTKELSVMIEMLEKHYGKKVILYATQEAYDLYIKDAYPQCDIWIRSVLTKPSLSDERKWTFWQYTNRGKLSGYNGKEKYIDLNVFYGNEEEFENYGMKD | soluble
2 | SKAWLHQYSVVGRKIPTQEEPEPPIYRLKIFAPNVVNAKSRFWYFLRKLKRVKKSSGEILNISEIFEKKSTQVKNYGIWIRYKSRSDTINMYREYRDVTVNGAVEQMYKDMSGRHRARWSSIWVLKAMPVAAKDCRRSKVTQFHDSKIKFALPHMRPRAPLKKYNTPFKAKRPTTIVQ | soluble
3 | MGSDKIHHHHHHMFMPEAVNWNRPIKVGVSSCLLGEKVRYDGGHKHDHYITDVLGKFFTFVPVCPEVGCGMPVPREAMRLEGDPEHPRLVTNKTRIDKTEQMRAFCKQKVTELADEELCGFIFKKDSPSSGLFRVKVHNEGMPTRSGSGLFAAAVVKHFPLLPAEEEGRLNDAAIRENFIERIFCYRRWKDFLLDSPDLGHLVTFHARHKLLILAHSTSIYREMGSLVAHGKGMSWPELAQSYEALFMKALALHATVKKNTNVLTHIMGYFKRDLSPAEKEELLGVIKEYHDRLVPLIVPLTLLKHYVGKYGQSYLQQQYYLSPHPAELMLRNHV | not soluble
4 | MSLIYCETERLILRDWHEDDLLPFQKMNANYDVRKYFPSLLSYRRSELDMRTMDAVIKDYGIGLFAVEDKESHQWIGFIGLNYIPETSDYPFKELPLYEIGWRLLPEFWGKGLATEGAKATLKLAEEHQIYDVYSFTAEANKASQRVMEKIGMTVYDHFELPNLSKYHLLKRQVRYYINLRKEGHHHHHH | soluble
5 | MGSDKIHHHHHHMAMVVLGAGGGLGRAITLELSKQYPDERIFALSRQPEVPETDSSDVTYCRIEDYDEKALGAWVSEFKNNGEQLSGVVSTIGMLHDEETFPEKKLTDITADNLNKLFSVNAVKPMLALKAFLPILDRKKTRFWVQLSAKVGSIEDNYLGGWYAYRSSKAGLNMLLKTASIELKRTHKNLIVAAIHPGTTDTRLSEPFQERISTDKLYSPELSAERIVAVVKNLKPENTGALWHWDGSRLPY | not soluble
6 | HQYSDLTINPSLGPASPTSFDDLATYRFEQWVNNLDITRAFDGLFGVPLQVSAGLEHRWERFRTFSGDAQAYQVGGYRFPASLPNGQASPLAGQLASIAAQAAAVISPQDATRLQRNNYAAYVDFGITPIEPLFVDLALRAEHFDDDSGNTVSAKLNSRYEFTDTFAVRGTVGTGFRAPSLTQTGYSISDNRVGAAPDGTIVPAVTRIAPVNSALAQALGATTLDPEKSRNLGVGVTWQPAPRTSLTADAYWIEIADRIARTESLYGPALAPTLTAQGVDTSTWTSYYANAFDTRTRGLDIVLD | not soluble
7 | MRISSLLFLTFLAGIVQAQDFLAMFKPFLGGGGGGGNPFANPQAIGGLFQQFAGGNGGGFGQLLAGAMAPKPAPAAAGPRSAPAPTNEDYNTDIDVPAPKAKARAAPTPRRAQGDDDDNIDMSLTRLG | not soluble
8 | MLAQCFQPNSSGIYPQEKLPLILETGVSPDYALIDSGNGKKLERYGAYRIIRPEGQALWKPALSEKHWANVDAIFTGNRDEEGVGRWYFPKKPLDETWPLSWNGLSFLGRFTSFRHVGVFPEQDAHWRFMEKQIVNATRPIKLLNLFGYTGIASLISARAGANVTHVDASKKAIAWAKANQEKAGLSDRSIRWICDDAVKFVERELRRQKTYDMILLDPPAYGRGPHGEIWQLFDHLPAMITNCRKLLSDEPLAVVLTAYSIRASFYALHTLMRDEFINLGGTVESGELILREKTTGRALSTSLFSRWIA | not soluble
9 | MSLADKVVNIGFSGPLSGGAAAYGKDTLSGLQMAVDTLNKSGGIKVGNDKVTFKVVSLDDRYLPNETATNVKRLTGQDIQFIFVPHAGGIQAVQPLAIRDPEFLLVAYSSEPKILAANNPLTFMLPPRYDNYAQPFVATEMKTFGKKLALVGTSSAYGKQWADLIESEWKKQGGTVGRDNAVDYNTTVDFSAAVTKALSEKPDVLFIGGPSQPTALVIKAAREQGFKGGFIVMDQAKFEQMETVIPKNYLDGSVGVLPTRDFPGTQSFVVQYQRAYKKIPTSEAGLNYMGMNVLAKAMELAGTTSDPRKVRAQLDAAAKALPQSKTVYKVFGVTPQATWTPSEGHHHHHH | soluble
10 | MSLTELYIHNGRDVSGAPVAVLITDGVIAEVGTELTVPVGCPTLDAQGCYITAGWIDDHTHCNAHAALYYDDADAIGYRTGVTTVIDAGSTGADNVADLYQQAHRAATNVYALLNIARTGIVAQDELADLNQLSFSALRTAIKRYPDFIVGLKVRVSKSVVGDNGVEPLRVAKQYQADLTVQLPLMVHIGSNPPELAAIIALMRPGDVLTHCFNGKPNGIVNSTGEVAQYVRKAYQKGLIFDVGHGTDSFSFRTAALARTAHLFPQTLSSDIYYRNRLNGPVYSLAVCVEKLLLLGYRLEEIIPMITTNPARIFKLTHKGQLCRGYDADLTIFQTVTAPQIVVDSTGEERIAPTQVIPTYSVIAGRVYTCGVDKEGHHHHHH | soluble
11 | MSLAVVASAVAGCGQVRVGQVEPAPGSPTRAQVEDMLGRVRVVAERGRPGGYDRDCGRGGGCVFGPAWTDDHGGAEGHNGCDTRNDVLAAQLSDVRYREGTRDCVVVAGTLRDPYTGRLLEFRKADARDVQIDHVYPLAAAWDLGAAGWSPEQRVRFANDTVTNLMATAGAVNQAKGDATPAEWMPPARANHCFYAGKYLTVAVRYDLPVTAADNAVLHAIARTCPEGHHHHHH | soluble
12 | MGCAQSTPVDQPARQQPQATQQKSVEPAVVKKPVEPARVEPKVEVPSTKPSEVPHVEKAQSINRGQPGDGSGPLQQPSPAMPGAKQGGTKERRAAAGSEAVRDQIRKLAVGGPQAKEEKEKIYEVSDSEDEELEDDPSERTTLSGDWYKPQEVTDAILEALKRNFVFKGIPQNHLVEVVGRMYGISFKSGAVVLQQGALPKQDDCMYYLQQGEAEVVISGGADASKNHGEERKVDGHTVRIPQKPGWLFGDVALLFHSPRTASVVAKTNITVWAMDRRTFLKFVMKHAQGARALRFLRKLPLLKGLSDNDLIRAASRMPQRMYEDGQPLIRIGERGDELFLIRYGKVRVFRPDGNGGRVEVAVLGRGQFVGERAVINDKLRSADCVAQGQVQVVVLKKREFMDLDNPLLAWMLDYDAVSAVIRSLPQFKGLKQEQMENILDRFDAREELMQGDTILNQGDMLEKLYVVKIGEIALFRNDERVEDPNFVHEIAGFSYFGETAITQTGKCPYTIRVASESLHLLSLPKRQVDSFMGRDTGLKNEEAVVAALKKSKFLANMTDPEFKELLKACEQTDYNPGEVIAVANSSVTNKIFLVKSGEVMVVAADLALPDTGEVDVRKLTGSERQRLLAGSIFNDKALNSPETASLEASLVAGTPCGIITFTTSDVERVMGGRAMSRSRNAMPGAAAAVEERKFPRVKFTELEFHRIIGTGQFGLVRVVRNIKTNEVYALKVMHKAPIVESKQIEHVINERKILEEACTHPFCVRLCGAYQDKASLYLLQEWVPGGELFHHLDVEGAFDEPTAMFYAANVLLALEFLHAKGIVYRDLKPENLLLDTQGYIKMADFGFAKYIGGDKTYTICGTPDYQAPEVIMRRGTTKAADYWALGVLIFEMLVGDPPFKSLTGDPWDTFRRTLSGRFYVPNFISDQAADLIFKLLQVNPDKRLGSDKRLGAEEIKRHRWFSRIDWRALEQKKLPSPFRPRVRNPLDTSNFDNFDNVDLEPPPVPADRAEKHSQQWELWDWIDDSK | not soluble
13 | MWEPSKRLKPVPILPELKEIGEQLQAQREQAMIEWAQTGYVKKLKARLVGRIIHGLGAGHIRETSLTIHPVYGLPYIPASSVKGLVRHWFIEAYCEGEEKQLNEHEIGREIFGTQGNKGIVQFHDIFLIESLQLTGDVLAVHMKEYYEGNRAATDDQKPVPVSFWTVMATEVDIYLTANRSAPQNDEETVRLLEAAALWTQQALTEWGIGSKTSSGYGRFAEVYDVTEMEFLPIVQKEQVRLEQQKKEREMLEQ | not soluble
14 | MGSDKIHHHHHHMNRQVIEFSKYNPSGNMTILVHSKHDASEYASIANQLMAATHVCCEQVGFIESTQNDDGNDFHLVMSGNEFCGNATMSYIHHLQESHLLKDQQFKVKVSGCSDLVQCAIHDCQYYEVQMPQAHRVVPTTINMGNHSWKALEIIYETYVHYVIPVKQVTTEIQHLVEAFVREQQWSHKYKTVGMMLFDEQRQFLQPLIYIPEIQSLIWENSCGSGTASIGVFNNYQRNDACKDFTVHQPGGSILVTSKRCHQLGYQTSIKGQVTTVATGKAYIE | not soluble
